# According to patent US20090022728A1 (RINAT NEUROSCIENCE, published 2009):
# Where no end group is shown, it is not given here.
# T1: Aβ1-16 peptide
# T1 peptide: DAEFRHDSGYEVHHQK
# T2: Aβ33-40 peptide
# T2 construct: also called C-terminal peptide (33-40) of Aβ1-40
# T2 peptide: GLMVGGVV
# T3: Aβ17-42 peptide
# T3 peptide: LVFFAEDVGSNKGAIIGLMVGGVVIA
# T4: Aβ28-40-NH2 peptide (carboxy-terminal amidated)
# T4 peptide: KGAIIGLMVGGVV-NH2
# T5: Aβ17-40 peptide
# T5 peptide: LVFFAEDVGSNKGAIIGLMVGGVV
# T6: Aβ28-40 peptide
# T6 peptide: KGAIIGLMVGGVV
# T7: Aβ28-42 peptide
# T7 peptide: KGAIIGLMVGGVVIA
# T8: Aβ22-35 peptide
# T8 peptide: EDVGSNKGAIIGLM
# T9: biotinylated Aβ 26-35 peptide with C-terminal glycine (also: biotinylated, site not given here)
# T9 peptide: SNKGAIIGLMG
# T10: biotinylated Aβ 26-40 peptide with C-terminal glycine (also: biotinylated, site not given here)
# T10 peptide: SNKGAIIGLMVGGVVG
# T11: biotinylated Aβ 24-33 peptide with C-terminal glycine (also: biotinylated, site not given here)
# T11 peptide: VGSNKGAIIGG
# T12: biotinylated Aβ 19-33 peptide with C-terminal glycine (also: biotinylated, site not given here)
# T12 peptide: FFAEDVGSNKGAIIGG
# T13: biotinylated Aβ 27-41 peptide with C-terminal glycine (also: biotinylated, site not given here)
# T13 peptide: NKGAIIGLMVGGVVIG
# B1: antibody 6G (full monoclonal antibody) (antibody, human IgG2, kappa, V domains shown)
# VH: QVQLVQSGAEVKKPGASVKVSCKASGYTFTTYAIHWVRQAPGQGLEWMGFTSPYSGVSNYNQKFKGRVTMTRDTSTSTVYMELSSLRSEDTAVYYCARFDNYDRGYVRDYWGQGTLVTVSS
# VL: DIVMTQSPDSLAVSLGERATINCRASESVDNDRISFLNWYQQKPGQPPKLLIYAATKQGTGVPDRFSGSGSGTDFTLTISSLQAEDVAVYYCQQSKEFPWSFGGGTKVEIKR
# notes: human IgG2a constant region with A330P331 to S330S331; human kappa light chain; also called 6G full antibody; 6G monoclonal antibody
# B2: murine antibody 7G10 (Fab) (Fab, V domains shown)
# VH: EVKLVESGGDLVKPGGSLKLSCAASGFTFSTYAMSWIRQTPEKRLEWVASIGNSSRTYYPDSVKGRFTISRDNAGSILYLQMSSLRSEDTAIYYCARGEDGNYAWFTYWGQGTQVTVS
# VL: DIVLTQSPATLSVTPGDSVSLSCRASQSVKNNLHWYQQKSHESPRLLIKYTFQSMSGIPSRFSGSGSGTDFTLIINSVETEDFGMYFCQQSNRWPLTFGAGTKLEL
# notes: Fab was injected in the Biacore assay; also called m7G10
# How the values were obtained:
# Aβ1-16 peptide = target: T1, Aβ1-16 peptide; assay: ELISA on immobilized Aβ peptides
# Experimental: (§1) To determine the epitope on Aβ peptide that is recognized by antibody 6G, ELISA binding analysis was used. Various Aβ peptides (Global Peptide Services, CO) was immobilized on a ELISA plate. The binding of 6G full antibody (at 20 nM) to the immobilized Aβ was determined by ELISA as described above. […] Thus, antibody 6G binds to the C-terminus of various truncated Aβ peptide, for example, 22-35, 1-38, 1-40, 1-42, and 1-43.
# Aβ33-40 peptide = target: T2, Aβ33-40 peptide; assay: ELISA on immobilized Aβ peptides
# Experimental: as §1
# Aβ1-38 peptide [1] = assay: SPR, peptide flowed over 6G mAb on CM5 chip
# Sequence of Aβ1-38 peptide (peptide, as listed by the source): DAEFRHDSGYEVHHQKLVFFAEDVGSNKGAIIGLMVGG
# Aβ1-37 peptide [2] = assay: SPR, peptide flowed over 6G mAb on CM5 chip
# Sequence of Aβ1-37 peptide (peptide, as listed by the source): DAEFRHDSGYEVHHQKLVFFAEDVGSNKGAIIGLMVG
# Aβ17-42 peptide [3] = target: T3, Aβ17-42 peptide; assay: SPR, peptide flowed over 6G mAb on CM5 chip
# [4] = target: T4, Aβ28-40-NH2 peptide (carboxy-terminal …); assay: SPR, peptide flowed over 6G mAb on CM5 chip
# Aβ17-40 peptide [5] = target: T5, Aβ17-40 peptide; assay: SPR, peptide flowed over 6G mAb on CM5 chip
# Aβ1-36 peptide [6] = assay: SPR, peptide flowed over 6G mAb on CM5 chip
# Sequence of Aβ1-36 peptide (peptide, as listed by the source): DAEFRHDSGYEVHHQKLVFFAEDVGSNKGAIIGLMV
# Aβ1-40 peptide [7] = target: T14, Aβ1-40 peptide; assay: SPR, peptide flowed over 6G mAb on CM5 chip
# T14 construct: synthetic peptide, not biotinylated; also called 1-40 (WT); beta amyloid 1-40
# Aβ28-40 peptide [8] = target: T6, Aβ28-40 peptide; assay: SPR, peptide flowed over 6G mAb on CM5 chip
# Aβ1-28 peptide = assay: SPR, peptide flowed over 6G mAb on CM5 chip
# Sequence of Aβ1-28 peptide (peptide, as listed by the source): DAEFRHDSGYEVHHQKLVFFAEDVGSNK
# Aβ1-39 peptide [9] = assay: SPR, peptide flowed over 6G mAb on CM5 chip
# Sequence of Aβ1-39 peptide (peptide, as listed by the source): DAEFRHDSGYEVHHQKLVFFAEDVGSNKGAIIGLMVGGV
# Aβ28-42 peptide [10] = target: T7, Aβ28-42 peptide; assay: SPR, peptide flowed over 6G mAb on CM5 chip
# Aβ1-42 peptide [11] = target: T15, Aβ1-42 peptide; assay: SPR, peptide flowed over 6G mAb on CM5 chip
# T15 construct: also called 1-42 (WT)
# Aβ1-43 peptide = target: T16, Aβ1-43 peptide; assay: SPR, peptide flowed over 6G mAb on CM5 chip
# T16 construct: also called 1-43 (WT)
# T16 sequence (peptide, as listed by the source): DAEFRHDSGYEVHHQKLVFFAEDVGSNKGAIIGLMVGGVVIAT
# Aβ22-35 peptide [12] = target: T8, Aβ22-35 peptide; assay: SPR, peptide flowed over 6G mAb on CM5 chip
# Aβ1-40 peptide [13] = target: T14, Aβ1-40 peptide; assay: SPR, peptide flowed over 6G mAb on CM5 chip; the reference itself
# Aβ1-38 peptide [14] = assay: SPR, peptide flowed over 6G mAb on CM5 chip; reference Aβ1-40
# Aβ1-37 peptide [15] = assay: as above
# Aβ17-42 peptide [16] = target: T3, Aβ17-42 peptide; assay: as above
# [17] = target: T4, Aβ28-40-NH2 peptide (carboxy-terminal …); assay: as above
# Aβ17-40 peptide [18] = target: T5, Aβ17-40 peptide; assay: as above
# Aβ1-36 peptide [19] = assay: as above
# Aβ28-40 peptide [20] = target: T6, Aβ28-40 peptide; assay: as above
# Aβ1-39 peptide [21] = assay: as above
# Aβ28-42 peptide [22] = target: T7, Aβ28-42 peptide; assay: as above
# Aβ1-42 peptide [23] = target: T15, Aβ1-42 peptide; assay: as above
# Aβ22-35 peptide [24] = target: T8, Aβ22-35 peptide; assay: as above
# [25] = target: T9, biotinylated Aβ 26-35 peptide with …; assay: ELISA on biotinylated peptides on streptavidin plates
# Experimental: (§2) ELISA was used for measuring binding of antibody 6G and variants to biotinylated Aβ peptides. NUNC maxisorp plates were coated with 6 ug/ml of streptavidin (Pierce, 21122) in PBS pH 7.4 for more than 1 h at 4° C. Plates were blocked with 1% BSA in PBS buffer pH 7.4. After washing, biotinylated Aβ peptides in PBS pH 7.4 were incubated 1 hour at room temperature. Primary antibody (from cell supernatants, serum containing anti-Aβ antibody, or purified full antibody or Fabs at desired dilution) was incubated with the immobilized Aβ peptides for 1 h at room temperature. After washing, plates were incubated with secondary antibody, a HRP conjugated goat anti-human kappa chain antibody (MP Biomedicals, 55233) at 1:5000 dilution. After washing, bound secondary antibody was measured by adding TMB substrate (KPL, 50-76-02, 50-65-02). HRP reaction was stopped by adding 1M phosphoric acid and absorbance at 450 nm was measured.
# (§3) Epitope mapping of antibody 6G was performed by ELISA assay. Biotinylated 15-mer or 10-mer of various Aβ peptides (these peptides have glycine added to the C-terminal end) were immobilized on streptavidin coated plates. Antibody 6G (from 2.5 ug/ml to 10 ug/ml) was incubated with the immobilized peptides and binding was measured as described above.
# [26] = target: T10, biotinylated Aβ 26-40 peptide with …; assay: as above
# Experimental: as §2, §3
# [27] = target: T11, biotinylated Aβ 24-33 peptide with …; assay: as above
# Experimental: as §2, §3
# [28] = target: T12, biotinylated Aβ 19-33 peptide with …; assay: as above
# Experimental: as §2, §3
# [29] = target: T13, biotinylated Aβ 27-41 peptide with …; assay: as above
# Experimental: as §2, §3
# [30] = target: T17, biotinylated Aβ1-40 peptide (biotinylated (N-biotinylated in Example 7)); assay: SPR, Fab over N-biotinylated peptide on SA chip
# T17 construct: captured on streptavidin (SA) chip; also called Biotinylated Aβ peptide 1-40; Aβ1-40 on SA chip
# Experimental: (§4) Affinities of 7G10 antibody were determined using BIAcore3000® as described previously in Example 1. N-biotinylated Aβ1-40, 1-42, and 1-43 were captured on SA chip. Threefold dilution series of anti-Aβ1-40 Fabs, anti-Aβ1-42 Fabs, and anti-Aβ1-43 Fabs respectively, were injected starting with a ⅙ dilution of the 7G10 stock listed above. The chip was regenerated with an 18 sec pulse of 6% EtOH+6 mM NaOH.
# [31] = target: T18, biotinylated Aβ1-42 peptide (biotinylated (N-biotinylated in Example 7)); assay: SPR, Fab over N-biotinylated peptide on SA chip
# T18 construct: captured on streptavidin chip; also called N-biotinylated Aβ1-42
# Experimental: as §4
# [32] = target: T19, N-biotinylated Aβ1-43 peptide (N-biotinylated); assay: SPR, Fab over N-biotinylated peptide on SA chip
# T19 construct: captured on SA chip
# Experimental: as §4
binder,measurement,setting,value
B1,binding result,Aβ1-16 peptide,no binding (tested: 20 nM)
same,binding result,Aβ33-40 peptide,no binding (tested: 20 nM)
same,koff,Aβ1-38 peptide [1],0.0093 s⁻¹
same,koff,Aβ1-37 peptide [2],0.0149 s⁻¹
same,koff,Aβ17-42 peptide [3],0.0465 s⁻¹
same,koff,[4],0.00362 s⁻¹
same,koff,Aβ17-40 peptide [5],0.000215 s⁻¹
same,koff,Aβ1-36 peptide [6],0.0205 s⁻¹
same,koff,Aβ1-40 peptide [7],0.000132 s⁻¹
same,koff,Aβ28-40 peptide [8],0.00064 s⁻¹
same,binding result,Aβ1-28 peptide,no binding
same,koff,Aβ1-39 peptide [9],0.00792 s⁻¹
same,koff,Aβ28-42 peptide [10],0.00337 s⁻¹
same,koff,Aβ1-42 peptide [11],0.0019 s⁻¹
same,binding result,Aβ1-43 peptide,binds
same,koff,Aβ22-35 peptide [12],0.0285 s⁻¹
same,koff Aβ peptide/koff Aβ1-40 (fold loss of affinity),Aβ1-40 peptide [13],1 fold
same,koff Aβ peptide/koff Aβ1-40 (fold loss of affinity),Aβ1-38 peptide [14],70.4 fold
same,koff Aβ peptide/koff Aβ1-40 (fold loss of affinity),Aβ1-37 peptide [15],113 fold
same,koff Aβ peptide/koff Aβ1-40 (fold loss of affinity),Aβ17-42 peptide [16],352 fold
same,koff Aβ peptide/koff Aβ1-40 (fold loss of affinity),[17],27.4 fold
same,koff Aβ peptide/koff Aβ1-40 (fold loss of affinity),Aβ17-40 peptide [18],1.6 fold
same,koff Aβ peptide/koff Aβ1-40 (fold loss of affinity),Aβ1-36 peptide [19],155 fold
same,koff Aβ peptide/koff Aβ1-40 (fold loss of affinity),Aβ28-40 peptide [20],4.8 fold
same,koff Aβ peptide/koff Aβ1-40 (fold loss of affinity),Aβ1-39 peptide [21],60 fold
same,koff Aβ peptide/koff Aβ1-40 (fold loss of affinity),Aβ28-42 peptide [22],25.5 fold
same,koff Aβ peptide/koff Aβ1-40 (fold loss of affinity),Aβ1-42 peptide [23],14.4 fold
same,koff Aβ peptide/koff Aβ1-40 (fold loss of affinity),Aβ22-35 peptide [24],216 fold
same,binding result,[25],no binding (tested: 2.5 ug/ml to 10 ug/ml)
same,binding result,[26],no binding (tested: 2.5 ug/ml to 10 ug/ml)
same,binding result,[27],no binding (tested: 2.5 ug/ml to 10 ug/ml)
same,binding result,[28],no binding (tested: 2.5 ug/ml to 10 ug/ml)
same,binding result,[29],no binding (tested: 2.5 ug/ml to 10 ug/ml)
B2,binding result,[30],no binding
same,Kd,[31],37.6 nM
same,Kd,[32],41 nM
